Data on 3 molecules can be found in patent publication US20180086821A1 (MAYO FOUNDATION FOR MEDICAL EDUCATION AND RESEARCH, published 2018).

Experiment [1] concerns the target T1, bovine serum albumin (BSA) (bovine, UniProt P02769 25-607).
T1 construct: Carrier alone, without hapten; also called carrier protein BSA
In words: solid-phase ELISA. For orientation: ELISA stands for enzyme-linked immunosorbent assay.

In experiment [2] the target is T2, human RBC spectrin (human, UniProt P02549 1-2419; P11277 2-2137).
T2 construct: Bought from Sigma; also called human erythrocyte spectrin
T2 sequence (P02549 whole entry, chain 1 of 2): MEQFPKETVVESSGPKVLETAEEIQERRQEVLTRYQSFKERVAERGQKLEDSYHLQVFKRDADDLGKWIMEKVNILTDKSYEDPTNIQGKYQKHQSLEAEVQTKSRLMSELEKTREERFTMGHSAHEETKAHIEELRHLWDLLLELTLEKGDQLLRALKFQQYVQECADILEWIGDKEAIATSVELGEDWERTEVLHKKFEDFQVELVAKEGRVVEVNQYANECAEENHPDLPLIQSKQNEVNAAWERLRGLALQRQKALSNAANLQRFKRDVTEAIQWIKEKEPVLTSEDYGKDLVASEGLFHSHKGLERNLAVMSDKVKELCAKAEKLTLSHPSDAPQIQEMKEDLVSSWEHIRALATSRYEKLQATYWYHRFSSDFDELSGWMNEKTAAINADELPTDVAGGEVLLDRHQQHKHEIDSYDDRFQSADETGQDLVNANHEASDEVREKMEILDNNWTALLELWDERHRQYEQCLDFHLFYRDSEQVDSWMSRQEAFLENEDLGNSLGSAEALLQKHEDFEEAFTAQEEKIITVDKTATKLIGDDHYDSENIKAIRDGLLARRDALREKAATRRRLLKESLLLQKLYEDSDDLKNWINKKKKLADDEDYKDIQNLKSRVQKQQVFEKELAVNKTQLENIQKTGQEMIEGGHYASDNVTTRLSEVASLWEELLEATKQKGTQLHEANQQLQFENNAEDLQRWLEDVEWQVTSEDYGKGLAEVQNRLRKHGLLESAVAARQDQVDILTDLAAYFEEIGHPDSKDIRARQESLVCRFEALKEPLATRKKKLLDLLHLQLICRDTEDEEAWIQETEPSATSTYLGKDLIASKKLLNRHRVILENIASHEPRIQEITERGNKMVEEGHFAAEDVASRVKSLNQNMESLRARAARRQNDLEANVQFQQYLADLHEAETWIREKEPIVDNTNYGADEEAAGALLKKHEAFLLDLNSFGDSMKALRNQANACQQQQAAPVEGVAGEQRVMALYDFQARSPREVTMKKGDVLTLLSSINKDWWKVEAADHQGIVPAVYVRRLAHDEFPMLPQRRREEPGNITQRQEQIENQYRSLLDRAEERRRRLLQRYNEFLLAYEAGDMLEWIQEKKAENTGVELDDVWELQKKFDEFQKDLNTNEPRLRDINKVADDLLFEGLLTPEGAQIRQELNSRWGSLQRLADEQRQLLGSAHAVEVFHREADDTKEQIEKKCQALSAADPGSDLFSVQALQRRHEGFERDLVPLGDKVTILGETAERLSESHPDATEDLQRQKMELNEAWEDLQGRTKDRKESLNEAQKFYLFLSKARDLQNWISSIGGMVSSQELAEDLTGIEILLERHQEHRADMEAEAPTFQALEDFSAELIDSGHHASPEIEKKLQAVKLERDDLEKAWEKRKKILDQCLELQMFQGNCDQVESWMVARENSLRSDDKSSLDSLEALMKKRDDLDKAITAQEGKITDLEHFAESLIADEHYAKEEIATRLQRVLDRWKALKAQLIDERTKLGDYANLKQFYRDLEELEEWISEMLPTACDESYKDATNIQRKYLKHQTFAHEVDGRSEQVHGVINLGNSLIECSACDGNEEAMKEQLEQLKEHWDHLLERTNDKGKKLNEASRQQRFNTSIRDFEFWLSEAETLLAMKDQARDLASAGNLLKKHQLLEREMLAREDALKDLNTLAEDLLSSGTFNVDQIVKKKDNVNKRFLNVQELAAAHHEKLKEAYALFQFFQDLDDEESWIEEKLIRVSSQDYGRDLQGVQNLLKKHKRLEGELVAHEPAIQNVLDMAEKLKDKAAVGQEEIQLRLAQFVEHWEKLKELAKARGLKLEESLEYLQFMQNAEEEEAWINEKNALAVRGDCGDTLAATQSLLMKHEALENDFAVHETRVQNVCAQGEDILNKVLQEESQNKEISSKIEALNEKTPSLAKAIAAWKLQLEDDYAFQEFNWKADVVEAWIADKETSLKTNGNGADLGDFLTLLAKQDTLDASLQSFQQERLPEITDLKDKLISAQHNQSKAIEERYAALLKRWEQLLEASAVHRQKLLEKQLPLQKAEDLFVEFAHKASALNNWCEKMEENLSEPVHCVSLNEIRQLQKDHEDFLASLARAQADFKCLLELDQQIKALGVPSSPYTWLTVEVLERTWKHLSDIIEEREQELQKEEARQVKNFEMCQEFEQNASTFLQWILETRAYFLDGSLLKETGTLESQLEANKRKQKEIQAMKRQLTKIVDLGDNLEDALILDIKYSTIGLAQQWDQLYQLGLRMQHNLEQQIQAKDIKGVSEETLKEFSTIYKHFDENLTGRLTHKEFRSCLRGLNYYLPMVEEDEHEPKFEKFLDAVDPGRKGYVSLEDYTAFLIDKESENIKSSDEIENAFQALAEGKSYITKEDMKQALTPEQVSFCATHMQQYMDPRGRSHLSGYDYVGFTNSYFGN
T2 sequence (P11277 2-2137, chain 2 of 2): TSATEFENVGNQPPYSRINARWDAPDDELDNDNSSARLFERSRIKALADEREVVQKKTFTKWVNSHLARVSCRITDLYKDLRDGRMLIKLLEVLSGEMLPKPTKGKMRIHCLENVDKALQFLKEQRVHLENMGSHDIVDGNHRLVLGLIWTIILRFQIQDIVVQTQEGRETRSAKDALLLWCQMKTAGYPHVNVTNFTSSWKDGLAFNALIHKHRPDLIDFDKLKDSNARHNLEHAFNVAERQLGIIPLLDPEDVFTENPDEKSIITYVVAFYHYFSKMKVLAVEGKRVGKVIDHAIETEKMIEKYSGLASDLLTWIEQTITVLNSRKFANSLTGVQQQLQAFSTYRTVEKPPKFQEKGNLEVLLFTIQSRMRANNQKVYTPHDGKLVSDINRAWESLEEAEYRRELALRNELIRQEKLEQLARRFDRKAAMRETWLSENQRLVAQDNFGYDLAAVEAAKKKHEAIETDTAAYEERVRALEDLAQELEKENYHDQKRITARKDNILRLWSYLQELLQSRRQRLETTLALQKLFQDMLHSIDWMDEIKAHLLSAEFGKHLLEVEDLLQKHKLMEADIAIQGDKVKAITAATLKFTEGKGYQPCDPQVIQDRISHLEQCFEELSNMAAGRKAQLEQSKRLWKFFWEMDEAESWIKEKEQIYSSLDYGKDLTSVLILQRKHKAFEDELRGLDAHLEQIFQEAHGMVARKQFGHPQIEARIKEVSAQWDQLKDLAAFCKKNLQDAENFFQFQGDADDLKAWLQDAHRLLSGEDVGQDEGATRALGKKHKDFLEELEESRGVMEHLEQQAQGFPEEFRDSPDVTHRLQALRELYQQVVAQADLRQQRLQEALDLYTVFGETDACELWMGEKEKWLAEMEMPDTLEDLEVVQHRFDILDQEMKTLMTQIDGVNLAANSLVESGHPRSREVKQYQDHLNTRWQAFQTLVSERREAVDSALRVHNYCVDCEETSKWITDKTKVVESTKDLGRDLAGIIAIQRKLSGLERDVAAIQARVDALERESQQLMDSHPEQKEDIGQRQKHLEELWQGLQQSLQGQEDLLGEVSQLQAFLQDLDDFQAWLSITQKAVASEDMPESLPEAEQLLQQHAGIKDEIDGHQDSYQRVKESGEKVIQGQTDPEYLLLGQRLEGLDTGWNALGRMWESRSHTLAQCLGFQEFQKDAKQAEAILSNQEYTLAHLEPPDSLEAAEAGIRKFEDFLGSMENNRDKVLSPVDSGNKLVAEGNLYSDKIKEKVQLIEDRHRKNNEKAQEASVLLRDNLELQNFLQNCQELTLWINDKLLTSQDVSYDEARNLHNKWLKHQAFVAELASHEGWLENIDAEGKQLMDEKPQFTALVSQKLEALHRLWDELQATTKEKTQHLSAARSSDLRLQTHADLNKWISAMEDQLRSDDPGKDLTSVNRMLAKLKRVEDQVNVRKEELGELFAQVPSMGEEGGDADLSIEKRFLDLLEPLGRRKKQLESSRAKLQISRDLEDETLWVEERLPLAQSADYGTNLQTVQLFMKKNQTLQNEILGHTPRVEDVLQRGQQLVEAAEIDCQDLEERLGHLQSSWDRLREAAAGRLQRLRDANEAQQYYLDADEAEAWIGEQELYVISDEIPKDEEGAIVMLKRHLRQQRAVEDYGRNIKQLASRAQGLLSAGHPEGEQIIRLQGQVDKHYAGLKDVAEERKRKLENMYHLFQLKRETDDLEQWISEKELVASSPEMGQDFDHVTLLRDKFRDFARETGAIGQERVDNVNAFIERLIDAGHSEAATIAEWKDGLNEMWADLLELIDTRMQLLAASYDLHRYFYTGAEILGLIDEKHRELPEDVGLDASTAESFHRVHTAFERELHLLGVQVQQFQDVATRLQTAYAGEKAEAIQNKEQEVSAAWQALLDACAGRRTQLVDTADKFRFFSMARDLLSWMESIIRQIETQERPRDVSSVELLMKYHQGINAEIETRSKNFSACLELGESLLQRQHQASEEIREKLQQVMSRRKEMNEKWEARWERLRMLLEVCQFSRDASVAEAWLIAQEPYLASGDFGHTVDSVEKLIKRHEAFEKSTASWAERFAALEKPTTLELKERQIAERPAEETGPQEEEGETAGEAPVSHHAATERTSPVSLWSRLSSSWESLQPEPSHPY
In words: direct ELISA, mAb at 2 µg/ml.
Method: (§1) Human RBC spectrin, bovine myosin (heavy chain), mouse albumin, mouse hemoglobin, mouse transferrin, hen egg lysozyme, rabbit actin, rabbit myelin basic protein, and keyhole limpet hemocyanin (KLH) were purchased from Sigma. Proteins were tested for purity by SDS-polyacrylamide gel electrophoresis. […] Protein antigens were used at 5 μg/ml, and hapten was used at 2 μM. The proteins and hapten-BSA antigens were coated onto polystyrene or polyvinylchloride microtiter plates in 0.1 M carbonate buffer, pH 9.5, for 18 hours at 4° C. Coated plates were blocked with PBS containing 5% nonfat dry mild and 0.05% Tween 20 for 2 hours at room temperature, and incubated with mAbs diluted in blocking buffer (2 μg/ml) for 4 hours at room temperature. […] Bound IgM was detected with biotinylated goat anti-mouse IgM (p chain specific; Jackson Immunoresearch, West Grove, Pa.) followed by alkaline phosphatase conjugated to streptavidin, with p-nitrophenylphosphate as the chromogenic substrate. Absorbance was determined at 405 nm.

In experiment [3] the target is T2, human RBC spectrin. In words: direct ELISA, antigen coated at 5 µg/ml.
Method: as §1
A further experiment deals with T3, mouse albumin (mouse, UniProt P07724 25-608).
T3 construct: Bought from Sigma
Put plainly: direct ELISA, antigen coated at 5 µg/ml.

The next experiment addresses T4, mouse hemoglobin (mouse, UniProt P01942 2-142; P02088 2-147).
T4 construct: Bought from Sigma; also called Mo Hb
In words: direct ELISA, antigen coated at 5 µg/ml.

The target of another experiment is T5, mouse transferrin (mouse, UniProt Q921I1 20-697).
T5 construct: Bought from Sigma
Put plainly: direct ELISA, antigen coated at 5 µg/ml.

Another experiment has as its target T6, hen egg lysozyme (hen (chicken), UniProt P00698 19-147).
T6 construct: Bought from Sigma; also called HEL
Put plainly: direct ELISA, antigen coated at 5 µg/ml.

The target of experiment [4] is T7, rabbit myelin basic protein (rabbit, UniProt P25274 1-168).
T7 construct: Bought from Sigma; also called rabbit MBP
In words: direct ELISA, antigen coated at 5 µg/ml.
Method: as §1

T1 sequence (P02769 25-607 limits assumed): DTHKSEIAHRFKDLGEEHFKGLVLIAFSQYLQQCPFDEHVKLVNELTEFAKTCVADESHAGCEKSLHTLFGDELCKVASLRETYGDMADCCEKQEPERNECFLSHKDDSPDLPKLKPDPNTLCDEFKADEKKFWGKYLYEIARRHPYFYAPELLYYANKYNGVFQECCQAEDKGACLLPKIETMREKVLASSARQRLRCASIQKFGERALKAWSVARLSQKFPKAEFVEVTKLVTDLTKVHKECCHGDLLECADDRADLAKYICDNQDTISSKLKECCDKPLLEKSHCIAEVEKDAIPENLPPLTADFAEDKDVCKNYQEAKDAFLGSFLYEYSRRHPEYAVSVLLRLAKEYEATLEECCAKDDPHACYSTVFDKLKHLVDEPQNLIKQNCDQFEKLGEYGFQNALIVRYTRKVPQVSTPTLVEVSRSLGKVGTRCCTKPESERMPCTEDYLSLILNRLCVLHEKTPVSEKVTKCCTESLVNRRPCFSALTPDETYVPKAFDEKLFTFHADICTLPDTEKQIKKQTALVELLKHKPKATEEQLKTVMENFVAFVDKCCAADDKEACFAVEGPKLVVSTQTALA
Method for hen egg lysozyme: as §1
Method for mouse albumin: as §1
Method for mouse hemoglobin: as §1
Method for mouse transferrin: as §1

B1: monoclonal antibody SCH94.03 (antibody, V domains shown)
VH: QVQLQQPGTELVKPGASVKLSCKASGYTFTSYWMHWVKQRPGQGLEWIGNINPSNGGTNYNEKFKSKATLTVDKSSSTAYMQLSSLTSEDSAVYYCARRAPYYGSRNFDYWGQGTTLTVSS
VL: DIQMTQTTSSLSASLGDRVTISCRASQDISNYLNWYQQKPDGTVKLLIYYTSRLHSGVPSRFSGSGSGTDYSLTISNLEQEDIATYFCQQGNTLPWTFGGGTKLEIKR
Turning to B1, the binding result in experiment [1] is “no binding”.

B2: mAb O1 (antibody, V domains shown)
VH: QVQLQQSGPELVKPGALVKISCKASGYTFTSYDINWVKQRPGQGLEWIGWIYPGDGSTKYNEKFKGKATLTADKSSSTAYMQLSSLTSENSAVYFCARGARFYWYFDVWGAGTTVTVSS
VL: DVQITQSPSYLAASPGETITINCRASKSISKYLAWYQEKPGKTNKLLIYSGSTLQSGIPSRFSGSGSGTDFTLTISSLEPEDFAMYYCQQHNEYPYTFGGGTKLEIKR
notes: Mouse IgM kappa; Entries may include the leader peptide; The hybridoma also makes the MOPC21 kappa chain; also called 01
Turning to B2, the binding result in the experiment with human RBC spectrin [2] was “binds”.

B3: mAb A2B5 (antibody, mouse IgM, V domains shown)
VH: EVKLVESGGGLVQPGGSLRLSCATSGFTFSDFYMEWVRQPPGKRLEWIAASRNKANDYTTEYSASVKGRFIVSRDTSQSILYLQMNALRAEDTAIYYCARDARQLGLPAWFAYWGQGTLVTVSA
VL: QIVLTQSPAIMSASPGEKVTISCSASSSVSYMYWYQQKPGSSPKPWIYRTSNLASGVPARFSGSGSGTSYSLTISSMEAEDAATYYCQQYHSYPLTFGAGTKLELKR
notes: Mouse IgM kappa
On to B3, for which the binding result (with human RBC spectrin [3]; with mouse albumin; in the experiment with mouse hemoglobin; in the experiment with mouse transferrin; in the experiment with hen egg lysozyme; in experiment [4]) was “no binding (tested: mAbs at 2 µg/ml)” each time.
